Laboratory results reported in publication doi:10.1101/2025.07.10.664194.

Tests used:
Assay in all cases: mass photometry
[1] = molecular target: PfOloA (not stated (prefix Pf))
[2] = molecular target: BtHamA (not stated (prefix Bt))
[3] = molecular target: PaAbpA (not stated (prefix Pa))
EcPD-T4-8 (E. coli) = molecular target: EcPD-T4-8 (E. coli)
EcPD-T4-1 (E. coli) = molecular target: EcPD-T4-1 (E. coli)
[4] = molecular target: EcHna (E. coli (from the prefix Ec))

PfOloB (natural protein)
stoichiometry N (OloA:OloB (2:2)) [1]: 1

BtHamB (natural protein)
stoichiometry N (HamA:HamB (1:1)) [2]: 1

PaAbpB (natural protein)
stoichiometry N (AbpA:AbpB (1:1)) [3]: 1

EcPD-T4-8 (natural protein)
stoichiometry N (EcPD-T4-8 (E. coli)): 4

EcPD-T4-1 (natural protein)
stoichiometry N (EcPD-T4-1 (E. coli)): 2

EcHna (natural protein)
stoichiometry N [4]: 2
